Consider 1 molecule from patent JP2023550785A (dated 2023).

Test [1] concerns the target T1, HCoV-HKU1 prefusion-stabilized spike (S) protein / S ectodomain trimer (human coronavirus HKU1, UniProt Q5MQD0 13-1300).
T1 sequence: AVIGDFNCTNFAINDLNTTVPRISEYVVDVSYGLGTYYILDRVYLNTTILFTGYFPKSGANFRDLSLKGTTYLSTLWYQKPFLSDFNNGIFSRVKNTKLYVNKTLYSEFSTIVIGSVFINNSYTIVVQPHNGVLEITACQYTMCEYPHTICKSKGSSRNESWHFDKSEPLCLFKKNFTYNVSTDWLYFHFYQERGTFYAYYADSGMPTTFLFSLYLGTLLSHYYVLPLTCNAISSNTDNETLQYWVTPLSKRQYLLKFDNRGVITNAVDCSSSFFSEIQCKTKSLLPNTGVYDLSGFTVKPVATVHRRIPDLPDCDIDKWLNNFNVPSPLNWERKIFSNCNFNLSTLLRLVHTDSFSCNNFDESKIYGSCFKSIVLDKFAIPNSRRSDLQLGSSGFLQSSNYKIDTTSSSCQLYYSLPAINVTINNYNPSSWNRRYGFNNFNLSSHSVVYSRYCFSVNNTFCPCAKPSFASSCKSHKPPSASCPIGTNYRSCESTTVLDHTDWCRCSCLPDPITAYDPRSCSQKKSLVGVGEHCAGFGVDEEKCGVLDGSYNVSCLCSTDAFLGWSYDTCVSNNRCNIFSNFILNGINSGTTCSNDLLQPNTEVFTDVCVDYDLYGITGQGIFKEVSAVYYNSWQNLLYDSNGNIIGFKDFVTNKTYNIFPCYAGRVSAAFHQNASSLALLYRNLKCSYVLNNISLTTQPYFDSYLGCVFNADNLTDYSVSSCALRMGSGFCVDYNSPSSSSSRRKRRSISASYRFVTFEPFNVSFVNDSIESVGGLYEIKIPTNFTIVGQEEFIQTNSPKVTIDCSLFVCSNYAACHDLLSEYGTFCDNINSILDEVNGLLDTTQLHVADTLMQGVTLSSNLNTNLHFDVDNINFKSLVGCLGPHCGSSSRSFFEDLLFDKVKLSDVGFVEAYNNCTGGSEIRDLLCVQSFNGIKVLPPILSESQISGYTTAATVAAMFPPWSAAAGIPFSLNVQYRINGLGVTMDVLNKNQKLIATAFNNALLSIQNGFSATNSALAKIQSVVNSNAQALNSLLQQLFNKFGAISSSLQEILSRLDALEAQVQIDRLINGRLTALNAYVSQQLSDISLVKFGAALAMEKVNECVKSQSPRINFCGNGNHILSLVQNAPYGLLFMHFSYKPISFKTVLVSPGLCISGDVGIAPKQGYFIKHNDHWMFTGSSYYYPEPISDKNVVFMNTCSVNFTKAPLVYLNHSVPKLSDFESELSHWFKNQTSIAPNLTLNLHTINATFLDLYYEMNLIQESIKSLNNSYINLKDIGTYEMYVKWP

Test [2] addresses SARS-CoV (Urbani strain) prefusion-stabilized spike (S) protein / S ectodomain trimer (SARS-CoV (Urbani strain), UniProt P59594 14-1195).
The target of test [3] is T2, MERS-CoV (London1/2012) prefusion-stabilized spike (S) protein / S ectodomain trimer (MERS-CoV (London1/2012), UniProt K9N5Q8 18-1296).
T2 sequence: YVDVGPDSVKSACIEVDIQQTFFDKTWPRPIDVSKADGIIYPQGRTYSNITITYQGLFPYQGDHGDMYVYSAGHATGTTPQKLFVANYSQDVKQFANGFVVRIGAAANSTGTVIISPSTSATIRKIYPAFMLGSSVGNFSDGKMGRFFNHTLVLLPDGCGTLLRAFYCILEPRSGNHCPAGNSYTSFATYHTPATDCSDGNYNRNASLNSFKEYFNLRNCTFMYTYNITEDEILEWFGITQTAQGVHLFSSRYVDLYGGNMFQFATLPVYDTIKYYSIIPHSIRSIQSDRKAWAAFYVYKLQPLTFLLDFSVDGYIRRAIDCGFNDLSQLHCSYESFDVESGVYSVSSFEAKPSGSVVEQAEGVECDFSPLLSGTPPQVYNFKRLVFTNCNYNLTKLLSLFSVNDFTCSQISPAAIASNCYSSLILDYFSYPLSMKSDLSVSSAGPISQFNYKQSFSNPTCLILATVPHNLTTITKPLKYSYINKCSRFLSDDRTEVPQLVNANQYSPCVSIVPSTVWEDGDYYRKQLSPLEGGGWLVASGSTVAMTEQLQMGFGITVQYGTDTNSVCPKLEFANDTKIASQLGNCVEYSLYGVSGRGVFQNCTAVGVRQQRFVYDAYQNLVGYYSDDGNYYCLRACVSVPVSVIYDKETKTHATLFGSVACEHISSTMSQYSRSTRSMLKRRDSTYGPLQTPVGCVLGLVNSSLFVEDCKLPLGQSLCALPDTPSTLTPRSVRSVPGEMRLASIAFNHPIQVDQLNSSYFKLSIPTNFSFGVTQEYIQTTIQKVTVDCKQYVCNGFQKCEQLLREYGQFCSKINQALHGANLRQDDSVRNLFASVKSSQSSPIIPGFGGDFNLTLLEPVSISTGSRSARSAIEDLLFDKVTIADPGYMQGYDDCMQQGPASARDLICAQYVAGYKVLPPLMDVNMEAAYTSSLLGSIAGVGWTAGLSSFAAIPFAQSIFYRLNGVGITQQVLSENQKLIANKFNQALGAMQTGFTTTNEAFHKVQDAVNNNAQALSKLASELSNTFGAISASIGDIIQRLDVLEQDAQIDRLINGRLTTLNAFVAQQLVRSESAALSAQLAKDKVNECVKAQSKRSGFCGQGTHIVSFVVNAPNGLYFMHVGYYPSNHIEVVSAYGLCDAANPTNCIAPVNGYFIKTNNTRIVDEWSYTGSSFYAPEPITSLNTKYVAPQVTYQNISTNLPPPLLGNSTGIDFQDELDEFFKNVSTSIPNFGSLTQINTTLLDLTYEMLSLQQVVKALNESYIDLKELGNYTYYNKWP

As a reminder, the Kd is the free concentration of one partner at which half of the binding sites on the other are occupied at equilibrium, for simple one-to-one binding. Low values mean tighter binding, high ones weaker binding.

B1: antibody S2P6 (antibody 420 1 1), human monoclonal antibody expressed as recombinant human IgG1 (antibody, V domains shown)
VH: EVQLVQSGAEVKKPGASVKVSCKASGYTFTSQYMHWVRQAPGQGLEWIGIINPSGVHTSYAQKFQGRVTLTRDTSTSTLYMELSSLRSEDTAVYYCARGSPKGAFDYWGQGTLVTVSS
VL: not shown
With B1, the results for the equilibrium dissociation constant (Kd) in test [1], in test [2] and in test [3] were 2.44 nM, < 0.001 nM and 1.14 nM, respectively.
